From patent publication US20220177594A1 (ZOETIS SERVICES, published 2022)
Read-outs that look alike come from different tables or passages of the source.

Columns and labels:
Human_OSMR = target: T1, Human_OSMR (human, UniProt Q99650 28-739); test: SPR Biacore, OSMR on chip
T1 construct: Bought protein; also called hOSMR
T1 sequence: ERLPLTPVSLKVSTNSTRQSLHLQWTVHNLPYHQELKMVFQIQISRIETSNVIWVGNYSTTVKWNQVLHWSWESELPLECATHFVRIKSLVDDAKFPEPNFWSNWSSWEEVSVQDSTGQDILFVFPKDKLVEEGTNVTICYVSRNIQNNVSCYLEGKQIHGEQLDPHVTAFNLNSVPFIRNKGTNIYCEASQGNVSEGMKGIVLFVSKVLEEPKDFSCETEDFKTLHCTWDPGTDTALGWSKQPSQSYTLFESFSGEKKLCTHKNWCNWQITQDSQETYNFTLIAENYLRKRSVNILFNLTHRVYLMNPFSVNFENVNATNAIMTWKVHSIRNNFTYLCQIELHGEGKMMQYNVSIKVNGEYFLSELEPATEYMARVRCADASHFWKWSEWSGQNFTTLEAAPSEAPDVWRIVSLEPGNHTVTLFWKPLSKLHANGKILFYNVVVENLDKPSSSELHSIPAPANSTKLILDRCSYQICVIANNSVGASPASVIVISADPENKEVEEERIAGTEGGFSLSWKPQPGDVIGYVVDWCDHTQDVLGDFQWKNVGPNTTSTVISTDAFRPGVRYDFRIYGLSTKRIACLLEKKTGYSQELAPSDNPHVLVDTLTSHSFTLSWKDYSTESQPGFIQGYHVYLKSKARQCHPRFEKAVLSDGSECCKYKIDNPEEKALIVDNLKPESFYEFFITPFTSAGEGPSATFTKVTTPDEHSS
Experimental: The affinity with which candidate mAbs bind canine, feline, and human (SEQ ID NO: 122; Human_OSMR) (R&D Systems, Minneapolis, Minn.) OSMR was determined using surface plasmon resonance (SPR) on a Biacore system (Biacore Life Sciences (GE Healthcare), Uppsala, Sweden). To avoid affinity differences associated with differential surface preparation that can occur when immobilizing antibodies to surfaces; OSMR from each species was directly conjugated to individual surfaces. Immobilization was obtained by amine coupling 5 μg/mL OSMR using N-hydroxysuccinimide (NHS)/1-Ethyl-3-(3-dimethylaminopropyl) carbodiimide (EDC) chemistry. Chips were quenched with ethanolamine and the affinity with which all candidate mAbs bound to the immobilized OSMR was evaluated. All curves were fit to a 1:1 model. […] Results for affinity measurements are described herein.

[1] = target: T2, ANTIBODY EXPRESSION CONTROL; test: SPR Biacore, expression control
T2 construct: also called mouse anti-canine antibody (capture reagent of the expression control ELISA)
How it was run: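 Surface plasmon resonance with OSMR amine-coupled at 5 μg/mL via NHS/EDC, ethanolamine-quenched, and candidate mAbs flowed over as analyte. ka, kd and KD derived from 1:1 model fits.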

[2] = target: T3, feline OSMR on feline Fcwf-4 cells (feline, UniProt A0ABI8A843 28-960); test: cell-based or functional assay
T3 sequence: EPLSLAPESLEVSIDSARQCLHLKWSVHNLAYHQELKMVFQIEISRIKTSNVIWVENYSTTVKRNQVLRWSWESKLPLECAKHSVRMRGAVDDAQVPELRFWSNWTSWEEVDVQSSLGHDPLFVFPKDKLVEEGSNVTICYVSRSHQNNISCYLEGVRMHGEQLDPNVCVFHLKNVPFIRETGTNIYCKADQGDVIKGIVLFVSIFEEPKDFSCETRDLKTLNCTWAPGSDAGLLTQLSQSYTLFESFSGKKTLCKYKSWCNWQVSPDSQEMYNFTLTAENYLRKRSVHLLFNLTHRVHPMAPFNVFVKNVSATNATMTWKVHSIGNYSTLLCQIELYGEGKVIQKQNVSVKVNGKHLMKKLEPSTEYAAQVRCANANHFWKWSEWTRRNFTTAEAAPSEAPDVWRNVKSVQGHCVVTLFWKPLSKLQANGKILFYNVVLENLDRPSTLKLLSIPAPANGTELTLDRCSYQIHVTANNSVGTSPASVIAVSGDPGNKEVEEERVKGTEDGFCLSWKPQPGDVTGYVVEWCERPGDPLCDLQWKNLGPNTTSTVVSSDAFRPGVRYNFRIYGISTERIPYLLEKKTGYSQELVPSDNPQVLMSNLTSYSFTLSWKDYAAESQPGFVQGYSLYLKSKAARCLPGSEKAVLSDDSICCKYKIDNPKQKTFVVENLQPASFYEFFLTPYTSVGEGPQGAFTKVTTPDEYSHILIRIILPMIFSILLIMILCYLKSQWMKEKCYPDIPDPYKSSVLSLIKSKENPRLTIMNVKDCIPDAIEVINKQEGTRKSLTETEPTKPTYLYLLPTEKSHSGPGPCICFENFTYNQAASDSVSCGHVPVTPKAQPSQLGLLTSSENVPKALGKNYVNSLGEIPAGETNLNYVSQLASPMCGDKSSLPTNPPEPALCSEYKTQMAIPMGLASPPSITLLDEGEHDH

[3] = target: T4, canine OSMR on canine cells (canine, UniProt A0A8I3MI11 28-967); test: cell-based or functional assay
T4 sequence: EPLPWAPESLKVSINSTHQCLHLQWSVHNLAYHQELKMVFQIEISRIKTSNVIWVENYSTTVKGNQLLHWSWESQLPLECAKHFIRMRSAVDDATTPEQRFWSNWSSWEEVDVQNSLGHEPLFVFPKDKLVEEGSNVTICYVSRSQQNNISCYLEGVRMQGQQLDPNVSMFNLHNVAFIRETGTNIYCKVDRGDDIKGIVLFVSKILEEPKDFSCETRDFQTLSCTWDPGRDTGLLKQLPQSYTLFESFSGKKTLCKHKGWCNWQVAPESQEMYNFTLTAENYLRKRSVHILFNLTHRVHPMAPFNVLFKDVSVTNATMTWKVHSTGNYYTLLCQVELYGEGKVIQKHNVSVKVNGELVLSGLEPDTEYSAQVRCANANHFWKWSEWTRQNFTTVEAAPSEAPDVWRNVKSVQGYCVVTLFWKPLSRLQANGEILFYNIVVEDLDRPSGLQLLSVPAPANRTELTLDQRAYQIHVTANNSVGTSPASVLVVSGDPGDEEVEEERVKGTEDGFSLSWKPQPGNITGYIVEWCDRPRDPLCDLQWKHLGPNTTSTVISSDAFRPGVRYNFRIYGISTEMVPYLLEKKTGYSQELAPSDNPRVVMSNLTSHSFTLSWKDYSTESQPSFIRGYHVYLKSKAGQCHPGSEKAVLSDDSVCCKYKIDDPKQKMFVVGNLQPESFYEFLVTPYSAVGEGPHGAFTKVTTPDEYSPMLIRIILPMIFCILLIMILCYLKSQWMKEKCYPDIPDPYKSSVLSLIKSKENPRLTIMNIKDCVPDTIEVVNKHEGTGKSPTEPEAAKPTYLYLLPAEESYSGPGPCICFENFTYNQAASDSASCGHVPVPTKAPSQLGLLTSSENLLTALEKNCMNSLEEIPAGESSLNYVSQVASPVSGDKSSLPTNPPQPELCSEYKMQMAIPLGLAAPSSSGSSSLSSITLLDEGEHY

[4] = target: T3, feline OSMR on feline Fcwf-4 cells; test: cell-based or functional assay; remark: listed apart in the source
[5] = target: T4, canine OSMR on canine cells; test: cell-based or functional assay; remark: listed apart in the source

- binding result (Human_OSMR): no binding
- Kd [1]: 0.617 nM
- koff [1]: 8.27e-05 s⁻¹
- kon [1]: 134000 M⁻¹ s⁻¹
- IC50, inhibition of canine OSM pSTAT3 signaling, feline Fcwf-4 cells [2]: 0.28 µg/ml
- IC50, inhibition of feline IL-31 pSTAT3 signaling, feline Fcwf-4 cells [2]: 0.05 µg/ml
- IC50, inhibition of canine IL-31 pSTAT3 signaling, canine DH82 cells [3]: 0.03 µg/ml
- IC50, inhibition of canine OSM pSTAT3 signaling, canine DH82 cells [3]: 0.2 µg/ml
- IC50, inhibition of feline IL-31 pSTAT3 signaling, feline Fcwf-4 cells [4]: 0.32 µg/ml
- IC50, inhibition of canine IL-31 pSTAT3 signaling, canine DH82 cells [5]: 0.05 µg/ml
- IC50, inhibition of canine OSM pSTAT3 signaling, canine DH82 cells [5]: 0.16 µg/ml
B1: mouse: canine 10F07 chimera (antibody, V domains shown)
VH: DVKLVESGEGLVKPGGSLKLSCAASGFTFSSYAMSWVRQTPEKRLEWVTYISSGGDYFYYADTVKGRFTISRDNARNTLYLQMSSLKSEDTAMYYCTRDPITGTFAYWGQGTLVTVSA
VL: DIQMTQTTSSLSASLGDRVTISCRASQDITNYLNWYQQKPDGTVKLLIYYTSTLHSGVPSRFSGSGSGTDFSLTISNLEQEDIATYFCQQGHMLPWTFGGGTKLEIKR
notes: Mouse variable domains on canine IgG constant regions; also called 10F07 (Mouse:Canine); mouse:dog chimera 10F07
